We go through two molecules from PMC12667520, “SP3 and DEP1 Orchestrate Panicle Architecture by Jointly Regulating APO2 Expression in Rice”.

Series [1] concerns the target FLAG-DEP1 (rice (Oryza sativa)) (UniProt Q67UU9).
In the next series the target is T1, DEP1 (Oryza sativa, UniProt Q67UU9 1-426).
T1 sequence: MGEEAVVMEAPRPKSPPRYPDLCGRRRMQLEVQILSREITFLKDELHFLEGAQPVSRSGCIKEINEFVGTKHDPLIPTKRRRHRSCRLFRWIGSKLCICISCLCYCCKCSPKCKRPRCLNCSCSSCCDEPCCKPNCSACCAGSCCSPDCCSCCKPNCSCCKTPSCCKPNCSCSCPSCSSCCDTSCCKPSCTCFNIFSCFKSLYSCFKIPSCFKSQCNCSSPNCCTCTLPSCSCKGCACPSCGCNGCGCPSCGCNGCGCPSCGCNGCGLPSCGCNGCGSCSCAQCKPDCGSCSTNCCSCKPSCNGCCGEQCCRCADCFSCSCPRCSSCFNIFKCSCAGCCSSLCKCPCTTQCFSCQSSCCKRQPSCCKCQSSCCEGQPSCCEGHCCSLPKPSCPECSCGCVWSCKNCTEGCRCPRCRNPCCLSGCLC
The experiment in a line: EMSA; LightShift Chemiluminescent EMSA Kit (Thermo), manufacturer's instructions; buffer, salt, pH and temperature not stated. To be noted: protein: recombinant; tags: MBP; label: biotin; blunt. Background: A gel shift assay detects complexes by their altered migration in electrophoresis.

The target in a further series is T2, SP3 (Dof15) (Oryza sativa).
T2 chain: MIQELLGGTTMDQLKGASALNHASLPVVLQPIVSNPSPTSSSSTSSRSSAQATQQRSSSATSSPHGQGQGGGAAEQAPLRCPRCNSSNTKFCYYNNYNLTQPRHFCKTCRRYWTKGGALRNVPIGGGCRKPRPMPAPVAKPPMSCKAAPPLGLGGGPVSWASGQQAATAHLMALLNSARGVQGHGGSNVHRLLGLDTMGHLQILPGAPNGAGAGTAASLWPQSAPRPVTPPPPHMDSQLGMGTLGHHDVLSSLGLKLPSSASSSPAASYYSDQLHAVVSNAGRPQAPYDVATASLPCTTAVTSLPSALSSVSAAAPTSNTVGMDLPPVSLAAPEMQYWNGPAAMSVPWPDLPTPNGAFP
The description is as above. To be noted: protein: recombinant; tags: GST (pGEX-6p); label: biotin; blunt.

The molecule HA-SP3 (natural protein) came in with a share of DEP1-GFP signals localised to the nucleus in rice protoplasts: 16% without SP3, 76% with SP3-HA co-expressed in series [1] of 76%.

B1: Bio-Probe (APO2 promoter) (dsDNA)
DNA 1: ACGCATGCAGGAGTATCTTTTTTCTTCGGAAGAGGAACAGTGAC
DNA 2: GTCACTGTTCCTCTTCCGAAGAAAAAAGATACTCCTGCATGCGT
For the molecule B1, the binding result is on record as “no binding” in the series with DEP1 and “binds” in the series with SP3 (Dof15).
